{
  "source": "patent US8859237B2",
  "about": "“Diguanylate cyclase method of producing the same and its use in the manufacture of cyclic-di-GMP and analogues thereof” (priority 2009, dated 2014)",
  "key": {"Staphylococcus aureus": {"test_system": "Staphylococcus aureus", "details": "exogenous c-di-GMP; incl. methicillin-resistant strains; cited from earlier work"}, "S. aureus": {"test_system": "S. aureus", "details": "murine mastitis infection; cited from earlier work"}, "[1]": {"test_system": "human colon carcinoma cells", "details": "basal and growth factor-induced; cited from earlier work"}, "[2]": {"assay": "c-di-GMP binding at the I-site of tDGC (absorption spectrum 256 nm peak, HPLC of denatured protein)", "parameters": "species or system Thermotoga maritima", "details": "purified protein, FIG. 1", "experimental": "The observation was surprising since the synthesis of c-di-GMP from two molecules of GTP requires the DGC protein to function in its dimeric form.\nHowever, despite the improved thermostability, we found the overall production yield was low even at high substrate concentration with prolonged incubation."}, "[3]": {"assay": "Size-exclusion chromatography, oligomeric state in solution", "type": "physicochemical, Thermotoga maritima", "details": "Superdex 75, 4° C., FIG. 3", "experimental": "Gel filtration was performed at 4° C. using the AKTA FPLC system equipped with a Superdex 75 HR 16/60 column (Amersham Biosciences). The buffer used for gel filtration is comprised of 50 mM Tris-Cl (pH 8.0), 300 mM NaCl, 5% Glycerol, 1 mM DTT. Fractions containing the recombinant protein were concentrated using Amicon concentrator (Millipore) to a final concentration of ca. 5 mg/ml as measured using Bradford assay. Concentrated proteins were stored in −80° C. degree after flash-freeze using liquid nitrogen. Mutant proteins were expressed, purified and stored following the same procedure. The molecular weight and oligomeric state of the protein was estimated based on the standard curve generated by using the standard proteins that include albumin, ovalbumin, chemotrypsinogen, RNase A. The final yield of the recombinant protein was 12-15 mg per liter culture for the wild type the mutant enzyme."}, "[4]": {"assay": "Diguanylate cyclase (DGC) activity assay and steady-state kinetic measurement (HPLC, GTP to c-di-GMP)", "type": "biochemical, Thermotoga maritima", "experimental": "Enzyme assays were conducted to determine the optimal salt concentration of the DGC reaction, with the buffer that contains 50 mM Tris-HCl (pH 8.0), 20 mM MgCl2, 100 μM GTP, 10 μM Enzyme, and 0-500 mM NaCl. Enzyme assays were conducted to determine the optimal pH concentration of the DGC reaction, with the buffer that contains 50 mM Tris-HCl (pH 7.0-9.0), 250 mM NaCl, 20 mM MgCl2, 100 μM GTP, 10 μM Enzyme. Reaction mixtures were incubated in a waterbath at 55° C. for 15 minutes. After heating at 95° C. for 10 min and centrifugation at 14,000 rpm for 5 min to remove protein precipitate, the supernatant was filtered before loading onto the Eclipse XDB-C18 (4.6×150 mm) column for monitoring the turnover from GTP to c-di-GMP using an Agilent LC1200 system (Mobile phase: 20 mM Triethylammonium bicarbonate (pH 7.0, pH adjusted using acetic acid), 9% Methanol, Flow rate: 1 mL/min). For thermostability analysis, the mutant protein was incubated at 45, 55 and 65° C., aliquots of protein solution were taken out at different time points to add into the reaction mixture that contains 50 mM Tris-Cl (pH 7.5), 250 mM NaCl, 20 mM MgCl2 and 100 μM GTP. The reaction was allowed to last for 10 min before being stopped and analyzed for GTP turnover by using HPLC. For product yield and steady state kinetic measurement, the standard reaction mixture include 50 mM Tris-Cl (pH 8), 20 mM MgCl2, 300 mM NaCl, 1 μM Enzyme, 5-800 μM GTP. Reactions were incubated at 55° C. for 1-60 minutes to obtain linear range of progress. For steady kinetics, data was fitted using GraphPad (Prism) to obtain the kinetic parameters."}},
  "note": "“Also recorded” adds a separate entry of the source.",
  "data": [
    {"molecule": "Nc1nc2c(ncn2[C@@H]2O[C@@H]3COP(=O)(O)O[C@H]4[C@@H](O)[C@H](n5cnc6c(=O)[nH]c(N)nc65)O[C@@H]4COP(=O)(O)O[C@H]3[C@H]2O)c(=O)[nH]1", "note": "[c-di-GMP, Bis-(3′-5′)-cyclic dimeric guanosine monophosphate]", "values": [
      {"measurement": "effect on in vitro cell-cell interactions and biofilm formation", "setting": "Staphylococcus aureus", "result": "reduce in vitro cell-cell interactions and biofilm formation"},
      {"measurement": "effect on colonization and biofilm formation", "setting": "S. aureus", "result": "inhibit colonization and biofilm formation"},
      {"measurement": "effect on cell proliferation", "setting": "[1]", "result": "inhibiting basal and growth factor-induced proliferation"}
    ]},
    {"molecule": "R158A: tDGC diguanylate cyclase domain with I-site arginine 158 replaced by alanine (protein, listed as Thermotoga maritima, DOMAIN (24)..(181) example of GGDEF domain, tDGC diguanylate cyclase domain with I-site arginine 158 replaced by alanine) MGSSHHHHHHSSGLVPRGSHMKELEYMAYHDPLTGLPNRRYFFELGNRYLDLAKREGKKVFVLFVDLAGFKAINDTYGHLSGDEVLKTVSKRILDRVARSDVVARYGGDEFTILLYDMKEEYLKSLLERILSTFREPVRVENKHLSVTPNIGVARFPEDGENLEELLKVADMRMYKAKEMKVPYFSLS", "values": [
      {"measurement": "c-di-GMP binding / association with the protein", "setting": "[2]", "result": "c-di-GMP is no longer associated with the protein; also recorded: abolished the c-di-GMP binding capability"},
      {"measurement": "oligomeric form in solution", "setting": "[3]", "result": "monomer"},
      {"measurement": "NaCl concentration at which the enzyme is most efficient", "setting": "[4]; 0-500 mM NaCl screened, 55° C., FIG. 4", "result": "250 to 300", "unit": "mM"},
      {"measurement": "GTP concentration above which production yield decreased (substrate inhibition)", "setting": "[4]; FIG. 2, 55° C.", "result": "ca. 0.8 mM"},
      {"measurement": "pH at which the enzyme is most efficient", "setting": "[4]; pH 7.0-9.0 screened, 55° C., FIG. 4", "result": 7.5},
      {"measurement": "kcat of GTP condensation", "setting": "[4]; steady-state kinetics, 55° C.", "result": 0.0433, "unit": "s⁻¹"},
      {"measurement": "GTP substrate turned over into c-di-GMP", "setting": "[4]; under the assay conditions", "result": "~100", "unit": "%"}
    ]},
    {"molecule": "R158Q: tDGC diguanylate cyclase domain with I-site arginine 158 replaced by glutamine (protein, listed as Thermotoga maritima, DOMAIN (24)..(181) example of GGDEF domain, tDGC diguanylate cyclase domain with I-site arginine 158 replaced by glutamine) MGSSHHHHHHSSGLVPRGSHMKELEYMAYHDPLTGLPNRRYFFELGNRYLDLAKREGKKVFVLFVDLAGFKAINDTYGHLSGDEVLKTVSKRILDRVQRSDVVARYGGDEFTILLYDMKEEYLKSLLERILSTFREPVRVENKHLSVTPNIGVARFPEDGENLEELLKVADMRMYKAKEMKVPYFSLS", "values": [
      {"measurement": "c-di-GMP binding / association with the protein", "setting": "[2]", "result": "abolished the c-di-GMP binding capability"}
    ]}
  ]
}
